Legend:
HSV-1F gB K320A = HSV-1F gB K320A (HSV-1 strain F, UniProt P06436 30-903); assay: cell-based or functional assay
HSV-1F gB D199A = HSV-1F gB D199A (HSV-1 strain F, UniProt P06436 30-903); assay: cell-based or functional assay
HSV-1F gB R335A = HSV-1F gB R335A (HSV-1 strain F, UniProt P06436 30-903); assay: cell-based or functional assay
HSV-1F gB K204A = HSV-1F gB K204A (HSV-1 strain F, UniProt P06436 30-903); assay: cell-based or functional assay
[1] = target: T1, HSV-1F gB R304Q (HDIT101-resistance mutant) (HSV-1 strain F, UniProt P06436 30-903); assay: cell-based or functional assay
[2] = target: glycoprotein B (gB) of HSV-2 strain G, full length, wild type (HSV-2 strain G); assay: cell-based or functional assay
HSV-1F gB Y326A = HSV-1F gB Y326A (HSV-1 strain F, UniProt P06436 30-903); assay: cell-based or functional assay
[3] = target: glycoprotein B (gB) of HSV-1 strain F, full length, wild type (HSV-1 strain F, UniProt P06436 30-903); assay: cell-based or functional assay
[4] = target: HSV-1F gB R335Q (HDIT102(H4)-resistant escape mutant) (HSV-1 strain F, UniProt P06436 30-903); assay: cell-based or functional assay
[5] = target: T2, recombinant HSV-1F glycoprotein B (gB) ectodomain (aa 30-729), trimeric (HSV-1 strain F, UniProt P06436 30-729); assay: BLI (Octet), biotinylated gB on streptavidin tips, Fab dilution series, global 1:1 fit; Fab; HSV-1F gB
T2 construct: also called recombinant HSV-1 gB; HSV-1F gB

[6] = target: T2, recombinant HSV-1F glycoprotein B (gB) …; assay: BLI (Octet), Fab, Kd=kdis/ka
[7] = target: T2, recombinant HSV-1F glycoprotein B (gB) …; assay: BLI (Octet), biotinylated gB on streptavidin tips, IgG in solution; full IgG, not Fab
[8] = target: T1, HSV-1F gB R304Q (HDIT101-resistance …); assay: flow cytometry of HEK293T cells transfected with a gB plasmid, FITC anti-human Fc secondary antibody, iMFI
[9] = target: T2, recombinant HSV-1F glycoprotein B (gB) …; assay: BLI (Octet), biotinylated gB on streptavidin tips, Fab dilution series, global 1:1 fit

B1: HDIT102(H4), fully human IgG1 anti-HSV gB antibody (antibody, V domains shown)
VH: EVQLVQSGAEVKTPGASVRVSCKASGHTFRTFDINWVRQAAGQGLEWMGWMSPNSGNTGYARQFQGRVTMTRNISANTAYMELRGLRFDDTAVYYCARGPGSTGTTGSMDVWGQGTTVTVSS
VL: QAGLTQPPSVSVAPGKTARISCGGNNIGSKSVHWYQQKPGQAPVLVIYYDSDRPSGIPERFSGSNSGNTATLTISRVEAGDEADYYCQVWDSGSVVFGGGTKLTVLG
- inhibition of gB-mediated cell-cell fusion by HDIT102(H4) (75 µg/ml), relative to wild type gB (HSV-1F gB K320A): 90.1 % of WT
- inhibition of gB-mediated cell-cell fusion by HDIT102(H4) (75 µg/ml), relative to wild type gB (HSV-1F gB D199A): 32.9 % of WT
- inhibition of gB-mediated cell-cell fusion by HDIT102(H4) (75 µg/ml), relative to wild type gB (HSV-1F gB R335A): 19.3 % of WT
- inhibition of gB-mediated cell-cell fusion by HDIT102(H4) (75 µg/ml), relative to wild type gB (HSV-1F gB K204A): 57.3 % of WT
- inhibition of gB-mediated cell-cell fusion by HDIT102(H4) (75 µg/ml), relative to wild type gB [1]: 92.3 % of WT
- inhibitory concentration for 50% neutralization (IC50) of 100 TCID50 cell-free HSV-2G on Vero cells [2]: 12.5 nM
- inhibition of gB-mediated cell-cell fusion by HDIT102(H4) (75 µg/ml), relative to wild type gB (HSV-1F gB Y326A): 72.7 % of WT
- inhibitory concentration for 50% neutralization (IC50) of 100 TCID50 cell-free HSV-1F on Vero cells [3]: 25.5 nM
- inhibition of gB-mediated cell-cell fusion by HDIT102(H4) (75 µg/ml), relative to wild type gB [4]: 18.8 % of WT

B2: HDIT102(H4) Fab (Fab, V domains shown)
VH: B1 VH
VL: B1 VL
notes: also called Fab HDIT102; Fab HDIT102 (H4)
- koff [5]: 8.85e-05 s⁻¹
- kon [5]: 992000 M⁻¹ s⁻¹
- Kd [6]: 0.0895 nM

B3: HDIT101, humanized IgG1 MAb2c (antibody, V domains shown)
VH: QVTLKESGPALVKPTQTLTLTCTFSGFSLSTSGMSVGWIRQPPGKALEWLAHIWWNNDKYYKPALKSRLTISKDTSKNQVVLTMTNMDPVDTATYYCARIYYGYRPYAMDYWGQGTLVTVSS
VL: DIVMTQTPLSLPVTPGEPASISCRSSQSIVHSNGNTYLEWYLQKPGQSPQLLIYKVSNRFSGVPDRFSGSGSGTDFTLKISRVEAEDVGVYYCFQGSHVPWSFGQGTKVEIKR
notes: also called MAb hu2c; HDIT101 IgG
- koff [7]: ~0.0011 s⁻¹
- binding result [8]: no binding

B4: HDIT101 Fab (Fab, V domains shown)
VH: B3 VH
VL: B3 VL
- kon [5]: 435000 M⁻¹ s⁻¹
- koff [9]: 0.00313 s⁻¹
- Kd [6]: 7.26 nM

From patent US20260265348A1 (HEIDELBERG IMMUNOTHERAPEUTICS, published 2026)
